Experimental data from the supplement of paper PMC9112550, “Optimization of the antimicrobial peptide Bac7 by deep mutational scanning” (BMC Biology, 2022).

Tested on: Escherichia coli TOP10
Assay: shrunken log2 fold change of peptide-encoding DNA abundance (4.5 h post-induction vs induction); higher = less antimicrobial activity (less host growth inhibition)
Details: time post-induction: 4.5 h; library: site-saturation at positions 5, 18, 19, 20
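Also: peptides expressed intracellularly from a pBAD plasmid library in pooled LB shake-flask culture, induced with 0.3% L-arabinose, DNA abundance read by NGS, three biological replicates, DESeq2 with apeglm shrinkage.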

In order of falling “shrunken log2 fold change” value:
1. RRIRFRPPRLPRPRPRPPPEPRP  1.28
2. RRIRKRPPRLPRPRPRPVRAPRP  1.27
3. RRIRRRPPRLPRPRPRPRETPRP  1.13
4. RRIRLRPPRLPRPRPRPRDGPRP  1.06
5. RRIRARPPRLPRPRPRPRAGPRP  0.896
6. RRIRARPPRLPRPRPRPMCAPRP  0.813
7. RRIRGRPPRLPRPRPRPEYPPRP  0.77
8. RRIRNRPPRLPRPRPRPRPKPRP  0.719
9. RRIRMRPPRLPRPRPRPRQLPRP  0.691
10. RRIRPRPPRLPRPRPRPTHPPRP  0.653
11. RRIRWRPPRLPRPRPRPTGWPRP  0.594
12. RRIRARPPRLPRPRPRPARTPRP  0.584
13. RRIRGRPPRLPRPRPRPLERPRP  0.577
14. RRIRARPPRLPRPRPRPLTAPRP  0.542
15. RRIRKRPPRLPRPRPRPRWPPRP  0.528
16. RRIRMRPPRLPRPRPRPREPPRP  0.447
17. RRIRGRPPRLPRPRPRPRVEPRP  0.432
18. RRIRDRPPRLPRPRPRPRRVPRP  0.427
19. RRIRARPPRLPRPRPRPFCFPRP  0.42
20. RRIRYRPPRLPRPRPRPAPPPRP  0.417
21. RRIRDRPPRLPRPRPRPSVWPRP  0.404
22. RRIRPRPPRLPRPRPRPRRCPRP  0.388
23. RRIRGRPPRLPRPRPRPICHPRP  0.378
24. RRIRRRPPRLPRPRPRPDWLPRP  0.365
25. RRIRNRPPRLPRPRPRPERAPRP  0.362
26. RRIRARPPRLPRPRPRPVFDPRP  0.321
27. RRIRSRPPRLPRPRPRPSAMPRP  0.292
28. RRIRHRPPRLPRPRPRPPLGPRP  0.25
29. RRIRGRPPRLPRPRPRPNTQPRP  0.224
30. RRIRERPPRLPRPRPRPREMPRP  0.203
31. RRIRGRPPRLPRPRPRPCESPRP  0.169
32. RRIRPRPPRLPRPRPRPVKVPRP  0.161
33. RRIRLRPPRLPRPRPRPGMAPRP  0.145
34. RRIRTRPPRLPRPRPRPGAMPRP  0.144
35. RRIRERPPRLPRPRPRPVDDPRP  0.133
36. RRIRPRPPRLPRPRPRPTYAPRP  0.133
37. RRIRMRPPRLPRPRPRPCLEPRP  0.126
38. RRIRGRPPRLPRPRPRPAWKPRP  0.122
39. RRIRHRPPRLPRPRPRPGLPPRP  0.118
40. RRIRRRPPRLPRPRPRPYAKPRP  0.106
41. RRIRGRPPRLPRPRPRPIMSPRP  0.0881
42. RRIRTRPPRLPRPRPRPNWQPRP  0.0832
43. RRIRWRPPRLPRPRPRPWSGPRP  0.076
44. RRIRQRPPRLPRPRPRPEEYPRP  0.0748
45. RRIRTRPPRLPRPRPRPQLVPRP  0.0727
46. RRIRQRPPRLPRPRPRPFYPPRP  0.0712
47. RRIRYRPPRLPRPRPRPEPEPRP  0.0661
48. RRIRMRPPRLPRPRPRPMVRPRP  0.0591
49. RRIRWRPPRLPRPRPRPNDDPRP  0.0584
50. RRIRVRPPRLPRPRPRPMWEPRP  0.0553
51. RRIRKRPPRLPRPRPRPCWPPRP  0.0513
52. RRIRNRPPRLPRPRPRPYIDPRP  0.0433
53. RRIRFRPPRLPRPRPRPHPYPRP  0.0415
54. RRIRQRPPRLPRPRPRPHWFPRP  0.0358
55. RRIRYRPPRLPRPRPRPMGEPRP  0.0325
56. RRIRGRPPRLPRPRPRPGKQPRP  0.0206
57. RRIRSRPPRLPRPRPRPPVHPRP  0.0185
58. RRIRDRPPRLPRPRPRPDSHPRP  0.0162
59. RRIRQRPPRLPRPRPRPWPRPRP  0.014
60. RRIRYRPPRLPRPRPRPPGSPRP  0.0125
61. RRIRNRPPRLPRPRPRPGIQPRP  0.00115
62. RRIRARPPRLPRPRPRPWQRPRP  0.000557
63. RRIRARPPRLPRPRPRPHMWPRP  -0.000358
64. RRIRDRPPRLPRPRPRPIGEPRP  -0.00228
65. RRIRLRPPRLPRPRPRPCVCPRP  -0.00623
66. RRIRFRPPRLPRPRPRPIPGPRP  -0.00876
67. RRIRRRPPRLPRPRPRPNASPRP  -0.0114
68. RRIRQRPPRLPRPRPRPKVVPRP  -0.0141
69. RRIRMRPPRLPRPRPRPASIPRP  -0.015
70. RRIRERPPRLPRPRPRPTLHPRP  -0.0201
71. RRIRQRPPRLPRPRPRPSHEPRP  -0.0209
72. RRIRMRPPRLPRPRPRPVMPPRP  -0.0271
73. RRIRFRPPRLPRPRPRPATTPRP  -0.0275
74. RRIRSRPPRLPRPRPRPNGGPRP  -0.0284
75. RRIRLRPPRLPRPRPRPCYGPRP  -0.0306
76. RRIRHRPPRLPRPRPRPKNGPRP  -0.0347
77. RRIRRRPPRLPRPRPRPWNFPRP  -0.0355
78. RRIRCRPPRLPRPRPRPENQPRP  -0.0366
79. RRIRCRPPRLPRPRPRPQHLPRP  -0.0397
80. RRIRCRPPRLPRPRPRPMAKPRP  -0.0415
81. RRIRLRPPRLPRPRPRPWAMPRP  -0.0431
82. RRIRKRPPRLPRPRPRPNTNPRP  -0.0445
83. RRIRTRPPRLPRPRPRPRKSPRP  -0.0508
84. RRIRFRPPRLPRPRPRPMNAPRP  -0.054
85. RRIRTRPPRLPRPRPRPMALPRP  -0.0542
86. RRIRNRPPRLPRPRPRPLWCPRP  -0.0608
87. RRIRARPPRLPRPRPRPNHFPRP  -0.0665
88. RRIRCRPPRLPRPRPRPLFGPRP  -0.0673
89. RRIRKRPPRLPRPRPRPLVLPRP  -0.0684
90. RRIRARPPRLPRPRPRPFEQPRP  -0.072
91. RRIRSRPPRLPRPRPRPIYWPRP  -0.0771
92. RRIRDRPPRLPRPRPRPQEHPRP  -0.0802
93. RRIRARPPRLPRPRPRPHDDPRP  -0.0805
94. RRIRTRPPRLPRPRPRPADCPRP  -0.082
95. RRIRIRPPRLPRPRPRPEGIPRP  -0.0831
96. RRIRSRPPRLPRPRPRPFVMPRP  -0.0833
97. RRIRERPPRLPRPRPRPSGYPRP  -0.0887
98. RRIRPRPPRLPRPRPRPSVWPRP  -0.0905
99. RRIRSRPPRLPRPRPRPMEMPRP  -0.0909
100. RRIRQRPPRLPRPRPRPVQTPRP  -0.0915
101. RRIRQRPPRLPRPRPRPQCWPRP  -0.0996
102. RRIRNRPPRLPRPRPRPNPCPRP  -0.1
103. RRIRARPPRLPRPRPRPWIQPRP  -0.103
104. RRIRLRPPRLPRPRPRPKHKPRP  -0.103
105. RRIRIRPPRLPRPRPRPSQQPRP  -0.11
106. RRIRTRPPRLPRPRPRPEIAPRP  -0.11
107. RRIRKRPPRLPRPRPRPNYMPRP  -0.117
108. RRIRDRPPRLPRPRPRPITPPRP  -0.117
109. RRIRFRPPRLPRPRPRPYERPRP  -0.119
110. RRIRHRPPRLPRPRPRPMPHPRP  -0.131
111. RRIRNRPPRLPRPRPRPSIPPRP  -0.134
112. RRIRFRPPRLPRPRPRPDTFPRP  -0.144
113. RRIRWRPPRLPRPRPRPWTFPRP  -0.146
114. RRIRLRPPRLPRPRPRPQIWPRP  -0.166
115. RRIRERPPRLPRPRPRPSNEPRP  -0.17
116. RRIRPRPPRLPRPRPRPCELPRP  -0.17
117. RRIRRRPPRLPRPRPRPLVKPRP  -0.179
118. RRIRNRPPRLPRPRPRPFSFPRP  -0.186
119. RRIRRRPPRLPRPRPRPDRVPRP  -0.203
120. RRIRRRPPRLPRPRPRPHRMPRP  -0.203
121. RRIRTRPPRLPRPRPRPWMVPRP  -0.208
122. RRIRPRPPRLPRPRPRPYGRPRP  -0.213
123. RRIRPRPPRLPRPRPRPDIEPRP  -0.215
124. RRIRWRPPRLPRPRPRPIEYPRP  -0.224
125. RRIRDRPPRLPRPRPRPIIMPRP  -0.226
126. RRIRWRPPRLPRPRPRPRVIPRP  -0.233
127. RRIRVRPPRLPRPRPRPQYYPRP  -0.238
128. RRIRHRPPRLPRPRPRPVVMPRP  -0.245
129. RRIRSRPPRLPRPRPRPHFTPRP  -0.256
130. RRIRMRPPRLPRPRPRPCETPRP  -0.263
131. RRIRLRPPRLPRPRPRPANCPRP  -0.291
132. RRIRNRPPRLPRPRPRPCSAPRP  -0.292
133. RRIRYRPPRLPRPRPRPFIMPRP  -0.313
134. RRIRHRPPRLPRPRPRPRFNPRP  -0.316
135. RRIRYRPPRLPRPRPRPPFCPRP  -0.332
136. RRIRKRPPRLPRPRPRPRYMPRP  -0.334
137. RRIRMRPPRLPRPRPRPHYIPRP  -0.335
138. RRIRLRPPRLPRPRPRPDNKPRP  -0.357
139. RRIRWRPPRLPRPRPRPSSKPRP  -0.369
140. RRIRCRPPRLPRPRPRPSHVPRP  -0.387
141. RRIRIRPPRLPRPRPRPAFYPRP  -0.387
142. RRIRLRPPRLPRPRPRPQDNPRP  -0.428
143. RRIRSRPPRLPRPRPRPNGKPRP  -0.437
144. RRIRNRPPRLPRPRPRPIIKPRP  -0.463
145. RRIRYRPPRLPRPRPRPSWMPRP  -0.534
146. RRIRSRPPRLPRPRPRPKNYPRP  -0.547
147. RRIRNRPPRLPRPRPRPYKLPRP  -0.66
148. RRIRIRPPRLPRPRPRPTGYPRP  -0.73
149. RRIRHRPPRLPRPRPRPFIYPRP  -0.831
150. RRIRWRPPRLPRPRPRPYMYPRP  -0.848
